{"source": "the domain aggregation screens of Martell et al. (2025)", "assay": "soluble fraction after stress (log2 fold change); higher = more stays soluble; pooled small domains, quantitative proteomics", "details": "stress: 50 degC", "method_in_brief": "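Pooled custom libraries of small protein domains were measured in a high-throughput format, with quantitative proteomics as the read-out. Each library was stressed at 50°C. Aggregation propensity is given as the base-two logarithm of the fold change in how much of each protein stays soluble after the stress. Higher values mean a larger share of the protein remains in solution.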", "data": [{"sequence": "HMDTIYMVVAKNIKYYRLIKSMSKKDLAEAVNVTPMAISNYENGKRKPEIDILKKIANVLGVRVVDFLTVR", "values": [{"measurement": "soluble fraction (log2)", "value": -1.73}]}, {"sequence": "HMEMSLGEKLKQARLTKNFSQEYMAEVLQISQKTYSNFENNKTKPDFSQIEEISKVLETSILEFLT", "values": [{"measurement": "soluble fraction (log2)", "value": -0.152}]}, {"sequence": "HMGVAASEVHREKKESSLQWRQSYNVATDQRRQGKTYKEITEFLNGAELKNSKGGTWSISGVRKMLM", "values": [{"measurement": "soluble fraction (log2)", "value": 0.271}]}, {"sequence": "HMARGATELPYSQLLDRVEAGEITTATTQGNTLLSTARDGKRYITYLPLDTMDEVVPRLDAANVEVKTER", "values": [{"measurement": "soluble fraction (log2)", "value": 0.0506}]}, {"sequence": "HMEEFGRRLKERMIDKNMTEAELAQKTELWSSILTSYLKGERFPGYYTLLRIAEALDVSIDFLLGLRDEPE", "values": [{"measurement": "soluble fraction (log2)", "value": -1.54}]}, {"sequence": "HMSTVTGLINYLSSGLIKGVGEATARKLVDHFGLDVLDIIQFNPQRLLEVDGIGEARAEMIASSFSEQK", "values": [{"measurement": "soluble fraction (log2)", "value": -0.399}]}, {"sequence": "HMGEVPVETKDGIKVHVHTVDKSQTAYGISRLYNITLNELYESNPEAKLELSIGQKLYFPVK", "values": [{"measurement": "soluble fraction (log2)", "value": -0.154}]}, {"sequence": "HMDDTRLELTLLGKIHNDEEINKQSHINVNIKNGVILLTGESPRREITERILTLARTFEHTRQIVNQIAT", "values": [{"measurement": "soluble fraction (log2)", "value": 0.116}]}, {"sequence": "HMNAEWMFDARKIPGLVMNYLRRIAVRAIEEKHYSPELVADLFGIDRTSIYDWLRKYRQQGEEALDTRKA", "values": [{"measurement": "soluble fraction (log2)", "value": 0.012}]}, {"sequence": "HMIPSEQYNTALTEIGLSTRAHNSLRRAGIMTLGQLIEKTRDGLPPLPGFGDKSQVEVQDLLTGLGYPI", "values": [{"measurement": "soluble fraction (log2)", "value": -0.203}]}, {"sequence": "HMNGADPYEQLGVTRDASDDELKAAHRKLSRENHPDTLMAKGMPPEFIEQANDKMARINAAWDQIRKERGI", "values": [{"measurement": "soluble fraction (log2)", "value": 0.26}]}, {"sequence": "HMSKSIEEIYDEAIRSLANEEYDSAKKLFSYLIDNFSDPEKLPLSLFWLGEIEFSSSNFDQSKIHYIE", "values": [{"measurement": "soluble fraction (log2)", "value": -0.0445}]}, {"sequence": "HMKIATIELVKEAVKSKLGKFTKRDIMELVPSVGKTTIENMLKQLIGEGYIERHGKGRATFYVK", "values": [{"measurement": "soluble fraction (log2)", "value": -0.56}]}, {"sequence": "HMKALYHQLVDLLKKRMESGMIPHDKLPSERELTAQYGVSRTTVRLALQELENTGYIYRRHGKGTFVSDI", "values": [{"measurement": "soluble fraction (log2)", "value": -2.27}]}, {"sequence": "HMLGERIRRLRKEMGMSVTELARRVKTSPSYISEIEKGEKTPSLNLLVRIASELRTGIDYLTGL", "values": [{"measurement": "soluble fraction (log2)", "value": -0.294}]}, {"sequence": "HMESKITTAEAAAILNASPQFVRVAMQRGILNIGIAMQMPNSNKWTYNISPKLLGEYSGKNIEYELERLR", "values": [{"measurement": "soluble fraction (log2)", "value": -1.54}]}, {"sequence": "HMTMTKELGQRIRAERTARKMTQEELAERADLHPTYIGQVERGEKSLTIASLEKIVEGLGISFSDLFEN", "values": [{"measurement": "soluble fraction (log2)", "value": -0.0406}]}, {"sequence": "HMKIPGIGDVYAILARVYSGPQFTWIEAGFPEDDTKAYSYLHTAIRKGSAIAILQAMRTSGALTPTIEKE", "values": [{"measurement": "soluble fraction (log2)", "value": -0.444}]}, {"sequence": "HMTPQEQWNNAYLLAKDYYDANGNLDIDEKYKTKDGFELGSWLTTQRNVYKRGKLSPEKTKKLEEIGISF", "values": [{"measurement": "soluble fraction (log2)", "value": 0.128}]}, {"sequence": "HMVTPPMVVVDVQGEVKTPGVYHLPTNSRVNDAIKAAGGPKQSADLSYINQARMVKDGEQIYVEKKL", "values": [{"measurement": "soluble fraction (log2)", "value": 0.12}]}, {"sequence": "HMQAATQVNIVGLFSNKAVVIINGGKPKTLSVGQTSEGVKLLAADSQTATLQIEGKTQQLGMGQAASVGG", "values": [{"measurement": "soluble fraction (log2)", "value": 0.134}]}, {"sequence": "HMTMKNPNGYGSVINLGKGRRRPWAARVTTGLVYDEKKDKLIQRYKYIGYADTRKEAHQILAEYNAGLPI", "values": [{"measurement": "soluble fraction (log2)", "value": -1.43}]}, {"sequence": "HMGSKEQELVILNNILERQLQAINLQKSAAGPMVNLRNVHNTLTKLVEAAGLKNVETYFTDPVIGAAQ", "values": [{"measurement": "soluble fraction (log2)", "value": 0.0108}]}, {"sequence": "HMEPLPDIPRGTRVSHQTAPADGDMPERRETGWTMTEPIRAQDGLAYVGVSVYGRGVVMLPVNSLSII", "values": [{"measurement": "soluble fraction (log2)", "value": -0.319}]}, {"sequence": "HMQVEEKNKKIELYIEGKIKELESNLMYVPNENKKKLLMAFMNRNEDIEIIKTKIDTIFNKSVAAYKENM", "values": [{"measurement": "soluble fraction (log2)", "value": 0.237}]}, {"sequence": "HMQDIDIVDLKRISELIYQKYNYDFRNYAMSSFKRRVQRIIELKKLTVDGLIKRLNDTPSFINEFLDELTV", "values": [{"measurement": "soluble fraction (log2)", "value": -0.139}]}, {"sequence": "HMEHGQWLSEAQGASLAADWLARRRGVLPLNARRHLSGLSDQIARQIEGGLSREAGLYTAHEMMESLDP", "values": [{"measurement": "soluble fraction (log2)", "value": -0.224}]}, {"sequence": "HMRGGLATLTPRERQVLALMAEGRSNAGIAAELVVSGGAVEKHVASIFTKLGLPPDESDNRRVLAVLRHLG", "values": [{"measurement": "soluble fraction (log2)", "value": -0.661}]}, {"sequence": "HMVNPIDFYLLFRTELQRLAEHPITVDRLTEVTGLNKLQVLDWLKRAEQDGLVKKLNRPTRYQLN", "values": [{"measurement": "soluble fraction (log2)", "value": -0.0401}]}, {"sequence": "HMSAPRRGETTAASLNLRAGPATDADILAQLPERTPLRVLQEDGEWLRVETHGNEGFVHRQFVAIPGDEP", "values": [{"measurement": "soluble fraction (log2)", "value": 0.218}]}, {"sequence": "HMSHYEYKVGDRVNLLDYDDFGILYKEKDNFYNVVVYYNGEFVEVNVKRITLEVAAKELYPEGYDLSTLFV", "values": [{"measurement": "soluble fraction (log2)", "value": -4.14}]}, {"sequence": "HMGRPWRIGDVVNVSRPTGDGGGFTKGLITRIYPTTVQVTWNPDLQHARPWTTMEKKQYLIFVYHDDE", "values": [{"measurement": "soluble fraction (log2)", "value": -2.86}]}, {"sequence": "HMNPEDLSGVRKAAILLLTMDDEVTKDVMKGLDEEEIEAIGKEITNLKLIPDHVVHRVQEEFMTKVSK", "values": [{"measurement": "soluble fraction (log2)", "value": 0.0913}]}, {"sequence": "HMGRYVIQIASFSSKNNAIEAADKLGGFVVQSGRFYRVRTGPFATRGEADAALASARRVGYRDAFIDTS", "values": [{"measurement": "soluble fraction (log2)", "value": -0.531}]}, {"sequence": "HMNNTIKFSVDTTNSGKRLDIFLAENIKQFTRSYLKKIISNNQVKLNNLVANSPSIKVKHSDLILINILE", "values": [{"measurement": "soluble fraction (log2)", "value": -1.82}]}, {"sequence": "HMLIADSDALRSQIESILNGNPNEVASFRAGKESLMGWFVGQVMRSTGGKADPKRTRELLQELLTK", "values": [{"measurement": "soluble fraction (log2)", "value": -0.102}]}, {"sequence": "HMQLVGSSAAVLIPAPAGGLGKIRLEFRGQTIDLIAKATDGGALIEGGAVTIVDVRDGQADVSV", "values": [{"measurement": "soluble fraction (log2)", "value": -0.552}]}, {"sequence": "HMQSSTAISFNQFQKSWLSNNIKSFQLGEDKMTVRGSLKNGTQYETIVPSERLFQFIGQHPKDGQVQEMY", "values": [{"measurement": "soluble fraction (log2)", "value": 0.042}]}, {"sequence": "HMEVLSYYGSRGQEVVNIQTKLKQWGYYKGNIDGIFGNLTYQAVREFQRKNGLKVDGIVGPETLAALGLPT", "values": [{"measurement": "soluble fraction (log2)", "value": -0.187}]}, {"sequence": "HMIYGNGVTDLKDLANGATIIIPADDSNETRALFLLQQEGLIKLPDDADAAKGVSTLDIVDGGGWVTSM", "values": [{"measurement": "soluble fraction (log2)", "value": 0.0431}]}, {"sequence": "HMAFYQDIAVDLRKQIIDGVYPKNSRLPNQAELAKLYTTSRVTIQKALKILQIEGLIEGRQGSGSYVKGP", "values": [{"measurement": "soluble fraction (log2)", "value": -1.42}]}, {"sequence": "HMDISRMNLSQTERAVLSVLDSQPLHTEEIIASADLRAGAIHSALISLQLKGLIKQLPGNLYVK", "values": [{"measurement": "soluble fraction (log2)", "value": -0.0722}]}, {"sequence": "HMQYKVMDVTVDGNPVIEFQNLNSKIKWIENNPDAIIQNIKTSSFEADQKRIVGTSRGPFWIVIKPDF", "values": [{"measurement": "soluble fraction (log2)", "value": -0.144}]}, {"sequence": "HMTESSTYFEKIGTEISQFKSIPKNIDVIIIEKLIYSGIIKKVDNEENSRVYYILTRKGRYFWKRYVLS", "values": [{"measurement": "soluble fraction (log2)", "value": 0.0633}]}, {"sequence": "HMDKGEQILQQALDKLPPKQRQVFEMRYFDEMPYREIATITETSEGALKASYHHAVKKIQQYISHL", "values": [{"measurement": "soluble fraction (log2)", "value": -0.397}]}, {"sequence": "HMLFSDSDLKSLLDKDISYVIEMYKAASKEQKRIISDMVAQKVMEKKYIDANILIQLGELTGINYMDL", "values": [{"measurement": "soluble fraction (log2)", "value": -0.472}]}, {"sequence": "HMTSGTLTLTQDTPVYTEPNKDGGVAYVQPQGDIQWDKYIFANGDNWYSFVQKNRDQEVRFYIAYSDVG", "values": [{"measurement": "soluble fraction (log2)", "value": -0.0923}]}, {"sequence": "HMDASSAVQFGSLLRDARRRQGLSQAELGGDKYSGSYISHLESGRRVATPEVIEFLSRRLGVSPLEWGVS", "values": [{"measurement": "soluble fraction (log2)", "value": -0.0679}]}, {"sequence": "HMKGDYWIIDLDKNYQYAIISEPDRQYLWILSRSPNMDTQTLETLKEKIRSKGFDLTYLKQTL", "values": [{"measurement": "soluble fraction (log2)", "value": -0.844}]}, {"sequence": "HMLGARIAALRRQAGMNQGELAKKLGISPSTVGMYEQGRREPSAEMLVRLAEAFSVSTDFLLT", "values": [{"measurement": "soluble fraction (log2)", "value": "-4.95e-05"}]}, {"sequence": "HMKLSDDIIVDTIKEIIEENKNMIEQRKMGAMGPLMGKAMAKFKGKADGQTVSNVIKDEILNIIN", "values": [{"measurement": "soluble fraction (log2)", "value": 0.154}]}, {"sequence": "HMAAESWTEKSRALAAAGLVVMGRDAQTKIEELTNLAPLIEAANASNTRLLTSQSIDELLSIVPTEENL", "values": [{"measurement": "soluble fraction (log2)", "value": 0.0724}]}, {"sequence": "HMAFEITSAERTRLEDIARKGLTAYTAEWKQLPASEKKALNKTGLQDFLKSMAADADSAREEEA", "values": [{"measurement": "soluble fraction (log2)", "value": 0.0772}]}, {"sequence": "HMLVKKYTEEETGRQAELSKQLAELSKAYYNTGNSMVDDAVFDKLRDELSSLEKESGFAYDISPNVS", "values": [{"measurement": "soluble fraction (log2)", "value": -0.953}]}]}
